For series [1], the target named is T1, human propionyl-CoA carboxylase beta (PCCB), wild-type isoform 1.
T1 chain: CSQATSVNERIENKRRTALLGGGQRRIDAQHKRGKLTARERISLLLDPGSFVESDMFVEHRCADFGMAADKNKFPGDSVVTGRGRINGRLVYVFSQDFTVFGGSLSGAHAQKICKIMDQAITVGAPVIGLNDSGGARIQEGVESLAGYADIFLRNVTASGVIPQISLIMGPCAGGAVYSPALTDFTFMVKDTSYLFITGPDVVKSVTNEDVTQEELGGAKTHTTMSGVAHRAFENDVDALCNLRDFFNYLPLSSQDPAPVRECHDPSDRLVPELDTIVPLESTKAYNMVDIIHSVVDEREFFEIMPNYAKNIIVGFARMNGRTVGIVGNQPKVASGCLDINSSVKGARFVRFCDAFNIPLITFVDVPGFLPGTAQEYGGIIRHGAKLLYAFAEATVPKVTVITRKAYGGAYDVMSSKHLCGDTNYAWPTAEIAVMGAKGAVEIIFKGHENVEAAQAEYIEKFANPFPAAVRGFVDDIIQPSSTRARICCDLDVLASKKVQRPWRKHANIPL

Series [2] concerns the target T2, human propionyl-CoA carboxylase alpha (PCCA), wild-type isoform 1 (human, UniProt P05165 53-728).
T2 construct: Made inside transfected cells or mouse liver from mRNA encoding the full-length precursor; also called hPCCA; propionyl-CoA carboxylase alpha subunit
T2 sequence: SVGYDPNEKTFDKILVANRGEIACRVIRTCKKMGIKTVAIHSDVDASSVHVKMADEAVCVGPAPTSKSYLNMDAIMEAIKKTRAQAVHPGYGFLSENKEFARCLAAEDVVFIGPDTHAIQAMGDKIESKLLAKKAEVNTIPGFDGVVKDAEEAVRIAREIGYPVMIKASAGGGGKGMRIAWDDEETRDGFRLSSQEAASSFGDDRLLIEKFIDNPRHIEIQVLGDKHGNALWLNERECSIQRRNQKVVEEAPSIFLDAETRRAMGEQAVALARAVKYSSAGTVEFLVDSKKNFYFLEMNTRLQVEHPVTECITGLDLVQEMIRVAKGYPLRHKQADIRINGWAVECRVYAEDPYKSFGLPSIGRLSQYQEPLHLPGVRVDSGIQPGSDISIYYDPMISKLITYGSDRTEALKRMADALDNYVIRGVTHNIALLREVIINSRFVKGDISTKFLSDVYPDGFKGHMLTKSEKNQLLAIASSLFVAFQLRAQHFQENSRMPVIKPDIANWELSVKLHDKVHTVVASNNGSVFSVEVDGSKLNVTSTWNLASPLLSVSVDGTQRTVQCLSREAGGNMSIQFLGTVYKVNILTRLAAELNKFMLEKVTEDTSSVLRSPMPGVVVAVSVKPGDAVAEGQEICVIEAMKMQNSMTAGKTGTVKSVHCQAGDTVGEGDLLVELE
Kind of series: immunofluorescence co-localisation with mitochondria in GM371 PCCA-deficient patient fibroblasts, 24 h after co-transfection of PCCA_18 and PCCB_18 mRNAs. How it is done: The subcellular co-localization of PCCA and PCCB proteins was examined in GM371 PCCA-deficient patient fibroblasts (9,000 cells/well on a 96-well plate) 24 hours after transfection with a total of 25 ng of 1-methyl-pseudouridine modified mRNAs encoding human PCCA (PCCA_18; SEQ ID NO: 35) and PCCB (PCCB_18; SEQ ID NO: 46), or a luciferase control. Commercial anti-PCCA monoclonal antibody (Santa Cruz #sc-393527) and anti-PCCB polyclonal antibody (Novus #NBP1-85886) were used to detect mRNA-expressed PCCA and PCCB using immunofluorescence microscopy. Mitotracker Red was used to confirm the identity of mitochondria and DAPI was used to stain nuclei. Image analysis was performed on a Zeiss ELYRA imaging system. […] There was no PAAC or PCCB staining in negative control cells that were transfected with mRNA encoding luciferase.

B1: human propionyl-CoA carboxylase alpha (PCCA), wild-type isoform 1 (protein)
chain: SVGYDPNEKTFDKILVANRGEIACRVIRTCKKMGIKTVAIHSDVDASSVHVKMADEAVCVGPAPTSKSYLNMDAIMEAIKKTRAQAVHPGYGFLSENKEFARCLAAEDVVFIGPDTHAIQAMGDKIESKLLAKKAEVNTIPGFDGVVKDAEEAVRIAREIGYPVMIKASAGGGGKGMRIAWDDEETRDGFRLSSQEAASSFGDDRLLIEKFIDNPRHIEIQVLGDKHGNALWLNERECSIQRRNQKVVEEAPSIFLDAETRRAMGEQAVALARAVKYSSAGTVEFLVDSKKNFYFLEMNTRLQVEHPVTECITGLDLVQEMIRVAKGYPLRHKQADIRINGWAVECRVYAEDPYKSFGLPSIGRLSQYQEPLHLPGVRVDSGIQPGSDISIYYDPMISKLITYGSDRTEALKRMADALDNYVIRGVTHNIALLREVIINSRFVKGDISTKFLSDVYPDGFKGHMLTKSEKNQLLAIASSLFVAFQLRAQHFQENSRMPVIKPDIANWELSVKLHDKVHTVVASNNGSVFSVEVDGSKLNVTSTWNLASPLLSVSVDGTQRTVQCLSREAGGNMSIQFLGTVYKVNILTRLAAELNKFMLEKVTEDTSSVLRSPMPGVVVAVSVKPGDAVAEGQEICVIEAMKMQNSMTAGKTGTVKSVHCQAGDTVGEGDLLVELE
In the case of B1, in series [1], the “PCC activity in GM371 PCCA-deficient patient fibroblasts at different PCCA:PCCB mRNA molar ratios, 24 h and 40 h” value is recorded as “a PCCA:PCCB molar ratio of 1:1 (A:B ratio of 1:1) increased PCC activity the greatest in PCCA-deficient patient fibroblasts”; the “PCC activity in GM1298 PCCB-deficient patient fibroblasts at different PCCA:PCCB mRNA molar ratios, 24 h” value is reported as “a PCCA:PCCB molar ratio of 1:1 (A:B ratio of 1:1) increased PCC activity the greatest in PCCB-deficient patient fibroblasts”; the “PCC enzyme activity (radiometric assay, MicroBeta readout/ug protein) in PCCA- and PCCB-deficient patient fibroblasts: co-transfection of PCCA and PCCB mRNAs at 1:1 against either mRNA alone” value is given as 5-25 fold higher.

B2: human propionyl-CoA carboxylase beta (PCCB), wild-type isoform 1 (enzyme)
chain: CSQATSVNERIENKRRTALLGGGQRRIDAQHKRGKLTARERISLLLDPGSFVESDMFVEHRCADFGMAADKNKFPGDSVVTGRGRINGRLVYVFSQDFTVFGGSLSGAHAQKICKIMDQAITVGAPVIGLNDSGGARIQEGVESLAGYADIFLRNVTASGVIPQISLIMGPCAGGAVYSPALTDFTFMVKDTSYLFITGPDVVKSVTNEDVTQEELGGAKTHTTMSGVAHRAFENDVDALCNLRDFFNYLPLSSQDPAPVRECHDPSDRLVPELDTIVPLESTKAYNMVDIIHSVVDEREFFEIMPNYAKNIIVGFARMNGRTVGIVGNQPKVASGCLDINSSVKGARFVRFCDAFNIPLITFVDVPGFLPGTAQEYGGIIRHGAKLLYAFAEATVPKVTVITRKAYGGAYDVMSSKHLCGDTNYAWPTAEIAVMGAKGAVEIIFKGHENVEAAQAEYIEKFANPFPAAVRGFVDDIIQPSSTRARICCDLDVLASKKVQRPWRKHANIPL
notes: Made inside transfected cells or mouse liver from mRNA encoding the full-length precursor; also called hPCCB; propionyl-CoA carboxylase beta subunit
For B2, the binding result in series [2] is on record as “binds”.

The values above are taken from patent US20220265856A1 (MODERNATX, published 2022).
